Test results taken from US7407766.

Target: full-length mouse Plexin-A1 protein (aa1 to 1894) (mouse) (UniProt P70206)
Test: AP activity bound to Plexin-A1 expressing L cells, non-specific binding to parent L cells subtracted; Scatchard plot

Chain of full-length mouse Plexin-A1 protein (aa1 to 1894) (mouse) (P70206 28-1894 limits assumed): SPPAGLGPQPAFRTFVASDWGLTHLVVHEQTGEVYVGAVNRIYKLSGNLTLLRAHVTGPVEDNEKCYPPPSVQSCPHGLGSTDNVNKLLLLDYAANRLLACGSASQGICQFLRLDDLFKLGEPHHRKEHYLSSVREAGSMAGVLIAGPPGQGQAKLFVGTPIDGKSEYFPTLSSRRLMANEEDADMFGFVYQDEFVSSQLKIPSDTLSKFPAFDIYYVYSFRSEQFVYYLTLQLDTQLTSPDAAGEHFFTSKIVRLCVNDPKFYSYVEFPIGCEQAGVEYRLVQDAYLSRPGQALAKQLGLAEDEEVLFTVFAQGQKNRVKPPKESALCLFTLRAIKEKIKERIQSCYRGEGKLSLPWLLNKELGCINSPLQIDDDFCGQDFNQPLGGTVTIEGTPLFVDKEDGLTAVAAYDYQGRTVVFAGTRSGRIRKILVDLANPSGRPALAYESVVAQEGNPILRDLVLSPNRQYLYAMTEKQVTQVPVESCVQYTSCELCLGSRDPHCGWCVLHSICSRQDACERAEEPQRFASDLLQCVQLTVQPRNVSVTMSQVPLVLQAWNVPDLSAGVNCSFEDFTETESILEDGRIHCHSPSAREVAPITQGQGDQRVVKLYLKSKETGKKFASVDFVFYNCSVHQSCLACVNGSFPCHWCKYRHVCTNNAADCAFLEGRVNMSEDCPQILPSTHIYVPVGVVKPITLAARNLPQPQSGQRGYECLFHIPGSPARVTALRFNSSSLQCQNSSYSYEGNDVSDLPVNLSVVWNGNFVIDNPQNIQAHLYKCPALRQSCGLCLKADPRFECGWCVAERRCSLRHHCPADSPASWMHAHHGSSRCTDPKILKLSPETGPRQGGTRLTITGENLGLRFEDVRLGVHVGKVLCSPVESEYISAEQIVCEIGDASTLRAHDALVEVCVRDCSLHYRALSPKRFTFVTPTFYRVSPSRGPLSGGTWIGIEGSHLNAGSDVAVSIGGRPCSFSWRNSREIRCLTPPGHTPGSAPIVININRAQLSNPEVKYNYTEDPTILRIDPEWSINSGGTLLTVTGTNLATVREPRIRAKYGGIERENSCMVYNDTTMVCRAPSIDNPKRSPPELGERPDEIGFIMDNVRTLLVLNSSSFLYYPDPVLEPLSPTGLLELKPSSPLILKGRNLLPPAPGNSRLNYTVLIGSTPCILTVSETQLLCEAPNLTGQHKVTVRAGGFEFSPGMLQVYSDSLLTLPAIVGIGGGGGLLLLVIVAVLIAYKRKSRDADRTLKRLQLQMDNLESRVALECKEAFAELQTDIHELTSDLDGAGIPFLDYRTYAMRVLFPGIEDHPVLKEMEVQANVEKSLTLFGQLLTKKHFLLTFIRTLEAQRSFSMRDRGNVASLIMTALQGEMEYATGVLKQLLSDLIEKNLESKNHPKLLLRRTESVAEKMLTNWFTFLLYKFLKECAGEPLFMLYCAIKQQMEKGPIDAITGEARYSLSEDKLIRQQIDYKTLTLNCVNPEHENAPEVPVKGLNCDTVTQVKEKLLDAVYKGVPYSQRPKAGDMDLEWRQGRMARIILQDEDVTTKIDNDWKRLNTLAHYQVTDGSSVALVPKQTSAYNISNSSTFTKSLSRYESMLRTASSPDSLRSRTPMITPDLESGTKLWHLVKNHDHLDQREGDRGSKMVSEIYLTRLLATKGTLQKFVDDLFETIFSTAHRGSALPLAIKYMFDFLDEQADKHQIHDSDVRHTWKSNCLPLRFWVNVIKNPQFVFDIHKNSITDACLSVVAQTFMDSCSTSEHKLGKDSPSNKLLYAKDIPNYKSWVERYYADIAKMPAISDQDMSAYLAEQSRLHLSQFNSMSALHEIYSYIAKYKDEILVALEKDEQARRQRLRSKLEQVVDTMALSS

Kd: 16.5 nM
Substance: Sema6C-alkaline phosphatase fusion protein (Sema6C-S-AP) (from UniProt Q9WTL3 24-599; P05187 23-511) (ligand)
